Test results from patent US20120316085A1.

Columns and labels:
[1] = biological target: c-Myc-containing recombinant protein; test: SPR; KD against WT as reference
[2] = biological target: c-Myc-containing recombinant protein; test: SPR (Biacore T200), c-Myc-containing recombinant protein immobilised, soluble Fab injected at 5-80 nM, 1:1 Langmuir fit

Fold change [1]: 1 fold
Kd [2]: 110 nM
koff [2]: 0.018 s⁻¹
kon [2]: 160000 M⁻¹ s⁻¹
B1: aM parental murine Fab (Fab, V domains shown)
VH: QIQLVQSGPELKKPGETVRISCKASGYTFTTAGMQWVQKMPGKGLKWIGWINTHSGVPKYAEDFKGRFAFSLETSASTAYLQMTNLNNEDTATYFCARGYGKGGYFAMDYWGQGTSVTVSS
VL: DVVMTQIPFSLPVSLGDQASISCRSSQSLVHSNGNTYLHWYVQKPGQSPKLLIYKVSNRFSGVPDRFSGSGSGTYFTLKISRVEAEDLGVYFCSQSTRVPWTFGGGTKLEIK
